From paper PMC9482650, “Quantitative fragmentomics allow affinity mapping of interactomes” (Nature Communications, 2022)
Each block holds one binder with its values, some of them ahead of it.

Experiments:
Experiment in all cases: holdup assay
Parameters in all cases: key: below the threshold = too weak to quantify, mostly under pKd 3.1 to 4
LDB3, O75112 = biological target: LDB3, O75112
RHPN1, Q8TCX5 = biological target: T1, RHPN1, Q8TCX5
T1 sequence (Q8TCX5 508-602, limits assumed, looked up): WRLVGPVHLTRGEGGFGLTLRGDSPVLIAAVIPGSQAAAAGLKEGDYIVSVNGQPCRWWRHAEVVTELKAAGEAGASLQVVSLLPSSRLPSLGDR

TIAM2, Q8IVF5 = biological target: T2, TIAM2, Q8IVF5
T2 sequence (Q8IVF5 885-986, limits assumed, looked up): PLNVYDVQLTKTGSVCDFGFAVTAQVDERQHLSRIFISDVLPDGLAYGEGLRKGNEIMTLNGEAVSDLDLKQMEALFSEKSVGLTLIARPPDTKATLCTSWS

DLG1_1, Q12959 = biological target: DLG1_1, Q12959
DLG1_2, Q12959 = biological target: DLG1_2, Q12959
DLG2_2, Q15700 = biological target: DLG2_2, Q15700
DLG5_1, Q8TDM6 = biological target: DLG5_1, Q8TDM6
APBA2_2, Q99767 = biological target: T3, APBA2_2, Q99767
T3 sequence (Q99767 654-744, limits assumed, looked up): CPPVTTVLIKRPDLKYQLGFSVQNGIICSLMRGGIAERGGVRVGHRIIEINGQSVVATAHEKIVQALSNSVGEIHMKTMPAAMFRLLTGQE

GRASP, Q7Z6J2 = biological target: GRASP, Q7Z6J2
MPP2, Q14168 = biological target: T4, MPP2, Q14168
T4 sequence (Q14168 180-250, limits assumed, looked up): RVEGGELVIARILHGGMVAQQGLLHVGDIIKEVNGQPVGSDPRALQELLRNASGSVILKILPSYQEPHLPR

PDLIM1, O00151 = biological target: PDLIM1, O00151
ARHGAP21, Q5T5U3 = biological target: T5, ARHGAP21, Q5T5U3
T5 sequence (Q5T5U3 45-169, limits assumed, looked up): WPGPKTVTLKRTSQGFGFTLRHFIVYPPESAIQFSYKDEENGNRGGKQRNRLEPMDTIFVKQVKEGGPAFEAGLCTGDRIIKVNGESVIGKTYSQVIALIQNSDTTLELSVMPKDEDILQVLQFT

GRID2IP_1, A4D2P6 = biological target: GRID2IP_1, A4D2P6
LIN7B, Q9HAP6 = biological target: T6, LIN7B, Q9HAP6
T6 sequence (Q9HAP6 88-185, limits assumed, looked up): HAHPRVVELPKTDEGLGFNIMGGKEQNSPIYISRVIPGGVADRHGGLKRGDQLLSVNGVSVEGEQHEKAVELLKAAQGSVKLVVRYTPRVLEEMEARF

NHERF3_3, Q5T2W1 = biological target: T7, NHERF3_3, Q5T2W1
T7 sequence (Q5T2W1 238-333, limits assumed, looked up): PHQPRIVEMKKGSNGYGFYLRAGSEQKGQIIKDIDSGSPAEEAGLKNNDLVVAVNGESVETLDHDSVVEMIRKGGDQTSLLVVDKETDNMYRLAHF

Inadl_10, Q8NI35 = biological target: Inadl_10, Q8NI35
RADIL, Q96JH8 = biological target: T8, RADIL, Q96JH8
T8 sequence (Q96JH8 971-1071, limits assumed, looked up): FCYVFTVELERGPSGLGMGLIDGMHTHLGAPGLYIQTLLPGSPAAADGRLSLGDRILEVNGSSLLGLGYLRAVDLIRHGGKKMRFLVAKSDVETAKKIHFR

ARHGEF12, Q9NZN5-2 = biological target: ARHGEF12, Q9NZN5-2
GIPC2, Q8TF65 = biological target: GIPC2, Q8TF65
MAGI2_2, Q86UL8 = biological target: MAGI2_2, Q86UL8
NHERF3_1, Q5T2W1 = biological target: T9, NHERF3_1, Q5T2W1
T9 sequence (Q5T2W1 4-100, limits assumed, looked up): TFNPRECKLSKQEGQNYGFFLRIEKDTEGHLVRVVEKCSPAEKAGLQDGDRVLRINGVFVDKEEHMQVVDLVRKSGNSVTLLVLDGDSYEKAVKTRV

PDZRN4_1, Q6ZMN7 = biological target: PDZRN4_1, Q6ZMN7
Inadl_6, Q8NI35 = biological target: Inadl_6, Q8NI35
NHERF4_1, Q86UT5-2 = biological target: NHERF4_1, Q86UT5-2
Inadl_8, Q8NI35 = biological target: Inadl_8, Q8NI35
Inadl_2, Q8NI35 = biological target: Inadl_2, Q8NI35
DFNB31_3, Q9P202 = biological target: T10, DFNB31_3, Q9P202
T10 sequence (Q9P202 811-907, limits assumed, looked up): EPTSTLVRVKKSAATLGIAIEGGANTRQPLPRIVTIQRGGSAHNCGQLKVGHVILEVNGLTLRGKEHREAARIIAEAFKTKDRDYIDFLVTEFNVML

[1] = plain residues with an end cap or a label only (N-terminal biotin on a linker: ttds)
[2] = plain residues with an end cap or a label only (N-terminal biotin on a linker: ado-ado)

Chain of PDLIM1, O00151 (O00151 1-87): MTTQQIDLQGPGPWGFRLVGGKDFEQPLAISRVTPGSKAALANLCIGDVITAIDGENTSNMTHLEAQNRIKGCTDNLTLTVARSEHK
Chain of DLG2_2, Q15700 (Q15700 189-283): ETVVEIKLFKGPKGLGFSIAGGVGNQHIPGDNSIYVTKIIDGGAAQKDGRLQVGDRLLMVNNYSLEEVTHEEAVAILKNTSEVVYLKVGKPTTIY
Chain of NHERF4_1, Q86UT5-2 (Q86UT5 other isoform, or with tags, fused parts or gaps): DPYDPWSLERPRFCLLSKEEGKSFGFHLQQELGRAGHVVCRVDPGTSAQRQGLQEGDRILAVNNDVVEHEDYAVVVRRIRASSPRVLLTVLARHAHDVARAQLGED
Chain of GRASP, Q7Z6J2 (Q7Z6J2 96-193): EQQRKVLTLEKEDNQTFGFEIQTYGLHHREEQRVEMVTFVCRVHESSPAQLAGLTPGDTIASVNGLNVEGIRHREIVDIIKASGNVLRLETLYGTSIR
Chain of ARHGEF12, Q9NZN5-2 (Q9NZN5 other isoform, or with tags, fused parts or gaps): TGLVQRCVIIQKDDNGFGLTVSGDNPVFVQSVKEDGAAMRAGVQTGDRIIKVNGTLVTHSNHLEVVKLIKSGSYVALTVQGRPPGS
Chain of MAGI2_2, Q86UL8 (Q86UL8 410-522): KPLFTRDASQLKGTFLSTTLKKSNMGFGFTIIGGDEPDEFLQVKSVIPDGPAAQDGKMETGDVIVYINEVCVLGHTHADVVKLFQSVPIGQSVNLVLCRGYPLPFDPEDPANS
Chain of Inadl_6, Q8NI35 (Q8NI35 1058-1167): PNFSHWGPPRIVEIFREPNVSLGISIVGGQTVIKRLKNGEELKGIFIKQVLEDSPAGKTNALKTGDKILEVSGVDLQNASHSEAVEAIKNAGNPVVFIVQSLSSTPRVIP
Chain of Inadl_2, Q8NI35 (Q8NI35 238-335): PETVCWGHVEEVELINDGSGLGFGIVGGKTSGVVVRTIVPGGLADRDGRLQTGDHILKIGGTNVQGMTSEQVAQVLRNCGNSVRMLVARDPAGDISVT
Chain of LDB3, O75112 (O75112 1-94): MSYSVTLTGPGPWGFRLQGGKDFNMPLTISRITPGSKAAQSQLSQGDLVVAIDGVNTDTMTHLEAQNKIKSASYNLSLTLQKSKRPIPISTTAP
Chain of GRID2IP_1, A4D2P6 (A4D2P6 1-87): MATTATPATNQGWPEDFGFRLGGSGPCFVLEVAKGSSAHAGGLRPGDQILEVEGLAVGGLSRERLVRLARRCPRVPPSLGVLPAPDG
Chain of Inadl_10, Q8NI35 (Q8NI35 1673-1763): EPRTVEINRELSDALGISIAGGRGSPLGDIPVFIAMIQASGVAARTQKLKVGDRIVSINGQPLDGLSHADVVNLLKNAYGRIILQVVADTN
Chain of DLG5_1, Q8TDM6 (Q8TDM6 617-713): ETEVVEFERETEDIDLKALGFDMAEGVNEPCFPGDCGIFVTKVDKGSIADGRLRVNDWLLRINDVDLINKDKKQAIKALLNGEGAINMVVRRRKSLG
Chain of GIPC2, Q8TF65 (Q8TF65 112-203): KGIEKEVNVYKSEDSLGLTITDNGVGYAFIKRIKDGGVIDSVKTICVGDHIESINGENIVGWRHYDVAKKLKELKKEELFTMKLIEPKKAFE
Chain of PDZRN4_1, Q6ZMN7 (Q6ZMN7 213-318): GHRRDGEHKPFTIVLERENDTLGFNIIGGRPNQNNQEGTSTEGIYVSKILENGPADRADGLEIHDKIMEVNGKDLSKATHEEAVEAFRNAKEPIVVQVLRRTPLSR
Chain of Inadl_8, Q8NI35 (Q8NI35 1425-1530): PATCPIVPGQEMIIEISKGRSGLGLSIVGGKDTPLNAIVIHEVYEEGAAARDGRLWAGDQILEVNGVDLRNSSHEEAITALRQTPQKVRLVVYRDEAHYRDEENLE

Binder: TEEEVQDTRL [CFTR, P13569]
pKd (LDB3, O75112; [1]): below the threshold
pKd (RHPN1, Q8TCX5; [1]): 4.12
pKd (TIAM2, Q8IVF5; [1]): below the threshold
pKd (DLG1_1, Q12959; [1]): below the threshold
pKd (DLG1_2, Q12959; [1]): below the threshold
pKd (DLG2_2, Q15700; [1]): below the threshold
pKd (DLG5_1, Q8TDM6; [1]): below the threshold
pKd (APBA2_2, Q99767; [1]): below the threshold
pKd (GRASP, Q7Z6J2; [1]): below the threshold
pKd (MPP2, Q14168; [1]): below the threshold
pKd (PDLIM1, O00151; [1]): below the threshold
pKd (ARHGAP21, Q5T5U3; [1]): below the threshold
pKd (GRID2IP_1, A4D2P6; [1]): below the threshold
pKd (LIN7B, Q9HAP6; [1]): below the threshold
pKd (NHERF3_3, Q5T2W1; [1]): 3.79
pKd (Inadl_10, Q8NI35; [1]): below the threshold
pKd (RADIL, Q96JH8; [1]): below the threshold
pKd (ARHGEF12, Q9NZN5-2; [1]): 3.52
pKd (GIPC2, Q8TF65; [1]): below the threshold
pKd (MAGI2_2, Q86UL8; [1]): below the threshold
pKd (NHERF3_1, Q5T2W1; [1]): 4.78
pKd (PDZRN4_1, Q6ZMN7; [1]): 3.99
pKd (Inadl_6, Q8NI35; [1]): below the threshold
pKd (NHERF4_1, Q86UT5-2; [1]): below the threshold
pKd (Inadl_8, Q8NI35; [1]): below the threshold
pKd (Inadl_2, Q8NI35; [1]): below the threshold
pKd (DFNB31_3, Q9P202; [1]): below the threshold

Binder: LDSQIQETSI [MAP4, P27816]
pKd (LDB3, O75112; [1]): below the threshold
pKd (RHPN1, Q8TCX5; [1]): 4.94
pKd (TIAM2, Q8IVF5; [1]): below the threshold
pKd (DLG1_1, Q12959; [1]): 3.64
pKd (DLG1_2, Q12959; [1]): 4.37
pKd (DLG2_2, Q15700; [1]): 3.9
pKd (DLG5_1, Q8TDM6; [1]): below the threshold
pKd (APBA2_2, Q99767; [1]): below the threshold
pKd (GRASP, Q7Z6J2; [1]): below the threshold
pKd (MPP2, Q14168; [1]): below the threshold
pKd (PDLIM1, O00151; [1]): below the threshold
pKd (ARHGAP21, Q5T5U3; [1]): below the threshold
pKd (GRID2IP_1, A4D2P6; [1]): below the threshold
pKd (LIN7B, Q9HAP6; [1]): below the threshold
pKd (NHERF3_3, Q5T2W1; [1]): below the threshold
pKd (Inadl_10, Q8NI35; [1]): below the threshold
pKd (RADIL, Q96JH8; [1]): below the threshold
pKd (ARHGEF12, Q9NZN5-2; [1]): 4.33
pKd (GIPC2, Q8TF65; [1]): below the threshold
pKd (MAGI2_2, Q86UL8; [1]): below the threshold
pKd (NHERF3_1, Q5T2W1; [1]): 4.52
pKd (PDZRN4_1, Q6ZMN7; [1]): 4.84
pKd (Inadl_6, Q8NI35; [1]): 4.13
pKd (NHERF4_1, Q86UT5-2; [1]): below the threshold
pKd (Inadl_8, Q8NI35; [1]): below the threshold
pKd (Inadl_2, Q8NI35; [1]): below the threshold
pKd (DFNB31_3, Q9P202; [1]): below the threshold

Now from value to binder:

pKd (LDB3, O75112; [1]): below the threshold
pKd (RHPN1, Q8TCX5; [1]): 5.14
pKd (TIAM2, Q8IVF5; [1]): below the threshold
pKd (DLG1_1, Q12959; [1]): 4.74
pKd (DLG1_2, Q12959; [1]): 5.37
pKd (DLG2_2, Q15700; [1]): 4.9
pKd (DLG5_1, Q8TDM6; [1]): below the threshold
pKd (APBA2_2, Q99767; [1]): below the threshold
pKd (GRASP, Q7Z6J2; [1]): below the threshold
pKd (MPP2, Q14168; [1]): below the threshold
pKd (PDLIM1, O00151; [1]): 3.73
pKd (ARHGAP21, Q5T5U3; [1]): 3.94
pKd (GRID2IP_1, A4D2P6; [1]): below the threshold
pKd (LIN7B, Q9HAP6; [1]): 4.68
pKd (NHERF3_3, Q5T2W1; [1]): below the threshold
pKd (Inadl_10, Q8NI35; [1]): below the threshold
pKd (RADIL, Q96JH8; [1]): below the threshold
pKd (ARHGEF12, Q9NZN5-2; [1]): 4.94
pKd (GIPC2, Q8TF65; [1]): below the threshold
pKd (MAGI2_2, Q86UL8; [1]): 4.52
pKd (NHERF3_1, Q5T2W1; [1]): 5.4
pKd (PDZRN4_1, Q6ZMN7; [1]): 5.47
pKd (Inadl_6, Q8NI35; [1]): 4.61
pKd (NHERF4_1, Q86UT5-2; [1]): 4.04
pKd (Inadl_8, Q8NI35; [1]): below the threshold
pKd (Inadl_2, Q8NI35; [1]): below the threshold
pKd (DFNB31_3, Q9P202; [1]): below the threshold
Binder: NYWPGKETQL [SLCO1C1, Q9NYB5]

pKd (LDB3, O75112; [2]): 3.54
pKd (RHPN1, Q8TCX5; [2]): 3.79
pKd (TIAM2, Q8IVF5; [2]): below the threshold
pKd (DLG1_1, Q12959; [2]): below the threshold
pKd (DLG1_2, Q12959; [2]): below the threshold
pKd (DLG2_2, Q15700; [2]): below the threshold
pKd (DLG5_1, Q8TDM6; [2]): 3.49
pKd (APBA2_2, Q99767; [2]): below the threshold
pKd (GRASP, Q7Z6J2; [2]): 3.86
pKd (MPP2, Q14168; [2]): below the threshold
pKd (PDLIM1, O00151; [2]): 3.52
pKd (ARHGAP21, Q5T5U3; [2]): 4.17
pKd (GRID2IP_1, A4D2P6; [2]): below the threshold
pKd (LIN7B, Q9HAP6; [2]): below the threshold
pKd (NHERF3_3, Q5T2W1; [2]): below the threshold
pKd (Inadl_10, Q8NI35; [2]): below the threshold
pKd (RADIL, Q96JH8; [2]): 3.61
pKd (ARHGEF12, Q9NZN5-2; [2]): 3.51
pKd (GIPC2, Q8TF65; [2]): below the threshold
pKd (MAGI2_2, Q86UL8; [2]): below the threshold
pKd (NHERF3_1, Q5T2W1; [2]): 3.75
pKd (PDZRN4_1, Q6ZMN7; [2]): 3.73
pKd (Inadl_6, Q8NI35; [2]): below the threshold
pKd (NHERF4_1, Q86UT5-2; [2]): 3.93
pKd (Inadl_8, Q8NI35; [2]): below the threshold
pKd (Inadl_2, Q8NI35; [2]): below the threshold
pKd (DFNB31_3, Q9P202; [2]): below the threshold
Binder: EDLTKNHDEL [RCN1, Q15293]
